# B1: Fibronectin type III and SPRY domain-containing protein 2 (Homo sapiens), A1L4K1 (parent)
# chain: MEEESGEELGLDRSTPKDFHFYHMDLYDSEDRLHLFPEENTRMRKVVQAEMANESRGAGDGKAQRDLQEEVDELVHLYGLEDDHELGDEFVDENIPRTGVSEYPPYMMKRRDPAREQRDWRLSGEAAEAEDLGFGGWGSAGQCQDLREAYRYTHGRASEEYECYVIPEEEDEEEAADVFCVTCKTPIRAFQKVFDEHKEHEVIPLNEALESAKDEIHKNMYKLEKQIIEMENFANHLEEVFITVEENFGKQEQNFESHYNEILETLAQKYEEKIQALGEKKKEKLEALYGQLVSCGENLDTCKELMETIEEMCHEEKVDFIKDAVAMADRLGKFLKTKTDVEISAQPEFEDQTLDFSDVEQLMGSINTIPAPSAPVINPQVPNSATGSSVRVCWSLYSDDTVESYQLSYRPVQDSSPGTDQAEFTVTVKETYCSVTNLVPNTQYEFWVTAHNRAGPSPSSERAVYMTAPSPPIIKTKEIRSCEEAVLICWESGNLNPVDSYTVELTQAESPEASGVTESVVGIPTCESVVQLQPGRSYIIYVRALNMGGPSVRSEPATVHTIGSYFRLNKDTCHPWLTISEDGLTAVRSERRTPARELSPSDTHFTRCVAVMGNLIPVRGHHYWEVEVDEHLDYRVGVAFADVRKQEDLGANCLSWCMRHTFASSRHKYEFLHNRTTPDIRITVPPKKIGILLDYEHSKLSFFNVDLSQHLYTFSCQLHEFVHPCFSLEKPGCLKVHNGISMPKHVTFY
# partner: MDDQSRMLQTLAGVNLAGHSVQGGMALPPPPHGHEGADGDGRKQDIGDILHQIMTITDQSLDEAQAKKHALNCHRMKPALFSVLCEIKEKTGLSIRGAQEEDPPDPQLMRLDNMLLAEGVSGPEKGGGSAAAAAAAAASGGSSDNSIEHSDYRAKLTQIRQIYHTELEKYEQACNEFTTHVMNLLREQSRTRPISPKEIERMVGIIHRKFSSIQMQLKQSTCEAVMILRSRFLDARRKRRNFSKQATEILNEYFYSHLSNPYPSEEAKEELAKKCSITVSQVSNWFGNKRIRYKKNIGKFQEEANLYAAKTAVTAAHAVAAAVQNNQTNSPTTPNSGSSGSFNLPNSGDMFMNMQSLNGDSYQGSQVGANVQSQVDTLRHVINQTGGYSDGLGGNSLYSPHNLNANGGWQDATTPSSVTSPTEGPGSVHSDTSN
# B2: G protein pathway suppressor 2 (Homo sapiens), Q13227 (parent)
# chain: MPALLERPKLSNAMARALHRHIMMERERKRQEEEEVDKMMEQKMKEEQERRKKKEMEERMSLEETKEQILKLEEKLLALQEEKHQLFLQLKKVLHEEEKRRRKEQSDLTTLTSAAYQQSLTVHTGTHLLSMQGSPGGHNRPGTLMAADRAKQMFGPQVLTTRHYVGSAAAFAGTPEHGQFQGSPGGAYGTAQPPPHYGPTQPAYSPSQQLRAPSAFPAVQYLSQPQPQPYAVHGHFQPTQTGFLQPGGALSLQKQMEHANQQTGFSDSSSLRPMHPQALHPAPGLLASPQLPVQMQPAGKSGFAATSQPGPRLPFIQHSQNPRFYHK
# partner: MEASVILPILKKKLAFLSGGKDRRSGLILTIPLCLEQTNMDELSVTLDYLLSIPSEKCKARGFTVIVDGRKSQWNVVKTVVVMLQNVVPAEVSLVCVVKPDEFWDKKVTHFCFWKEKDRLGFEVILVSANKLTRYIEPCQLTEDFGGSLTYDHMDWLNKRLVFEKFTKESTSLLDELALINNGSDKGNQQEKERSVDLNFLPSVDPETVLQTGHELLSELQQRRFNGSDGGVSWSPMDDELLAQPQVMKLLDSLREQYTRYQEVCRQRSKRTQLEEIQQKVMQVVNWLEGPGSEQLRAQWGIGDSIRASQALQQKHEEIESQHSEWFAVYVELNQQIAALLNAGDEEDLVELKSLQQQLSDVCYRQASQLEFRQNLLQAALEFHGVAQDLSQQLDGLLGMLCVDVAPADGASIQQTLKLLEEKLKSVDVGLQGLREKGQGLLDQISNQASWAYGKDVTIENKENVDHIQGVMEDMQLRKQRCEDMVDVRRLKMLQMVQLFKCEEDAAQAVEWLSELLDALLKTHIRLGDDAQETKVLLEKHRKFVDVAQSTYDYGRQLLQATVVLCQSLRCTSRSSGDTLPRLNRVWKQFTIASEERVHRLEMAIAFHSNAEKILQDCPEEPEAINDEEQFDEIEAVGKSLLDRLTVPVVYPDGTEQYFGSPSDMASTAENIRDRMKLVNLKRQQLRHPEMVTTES
# B3: E3 ubiquitin-protein ligase LNX (Homo sapiens), Q8TBB1 (parent)
# chain: MNQPESANDPEPLCAVCGQAHSLEENHFYSYPEEVDDDLICHICLQALLDPLDTPCGHTYCTLCLTNFLVEKDFCPMDRKPLVLQHCKKSSILVNKLLNKLLVTCPFREHCTQVLQRCDLEHHFQTSCKGASHYGLTKDRKRRSQDGCPDGCASLTATAPSPEVSAAATISLMTDEPGLDNPAYVSSAEDGQPAISPVDSGRSNRTRARPFERSTIRSRSFKKINRALSVLRRTKSGSAVANHADQGRENSENTTAPEVFPRLYHLIPDGEITSIKINRVDPSESLSIRLVGGSETPLVHIIIQHIYRDGVIARDGRLLPGDIILKVNGMDISNVPHNYAVRLLRQPCQVLWLTVMREQKFRSRNNGQAPDAYRPRDDSFHVILNKSSPEEQLGIKLVRKVDEPGVFIFNVLDGGVAYRHGQLEENDRVLAINGHDLRYGSPESAAHLIQASERRVHLVVSRQVRQRSPDIFQEAGWNSNGSWSPGPGERSNTPKPLHPTITCHEKVVNIQKDPGESLGMTVAGGASHREWDLPIYVISVEPGGVISRDGRIKTGDILLNVDGVELTEVSRSEAVALLKRTSSSIVLKALEVKEYEPQEDCSSPAALDSNHNMAPPSDWSPSWVMWLELPRCLYNCKDIVLRRNTAGSLGFCIVGGYEEYNGNKPFFIKSIVEGTPAYNDGRIRCGDILLAVNGRSTSGMIHACLARLLKELKGRITLTIVSWPGTFL
# B4: Ribosomal RNA-processing protein 7 homolog A (Homo sapiens), Q9Y3A4 (parent)
# chain: MVARRRKCAARDPEDRIPSPLGYAAIPIKFSEKQQASHYLYVRAHGVRQGTKSTWPQKRTLFVLNVPPYCTEESLSRLLSTCGLVQSVELQEKPDLAESPKESRSKFFHPKPVPGFQVAYVVFQKPSGVSAALALKGPLLVSTESHPVKSGIHKWISDYADSVPDPEALRVEVDTFMEAYDQKIAEEEAKAKEEEGVPDEEGWVKVTRRGRRPVLPRTEAASLRVLERERRKRSRKELLNFYAWQHRESKMEHLAQLRKKFEEDKQRIELLRAQRKFRPY
# Variants of: B1
# Details: with pbx3_human PBX3, P40426
row,effect of a mutation on the interaction,Variant
1,with no effect,E720K

# Variants of: B2
# Details: with sesd1_human SESTD1, Q86VW0
row,effect of a mutation on the interaction,Variant
1,with no effect,A215T

# Variants of: B3
# Details: with tri23_human TRIM23, P36406
# Chain of tri23_human TRIM23, P36406 (P36406 whole entry): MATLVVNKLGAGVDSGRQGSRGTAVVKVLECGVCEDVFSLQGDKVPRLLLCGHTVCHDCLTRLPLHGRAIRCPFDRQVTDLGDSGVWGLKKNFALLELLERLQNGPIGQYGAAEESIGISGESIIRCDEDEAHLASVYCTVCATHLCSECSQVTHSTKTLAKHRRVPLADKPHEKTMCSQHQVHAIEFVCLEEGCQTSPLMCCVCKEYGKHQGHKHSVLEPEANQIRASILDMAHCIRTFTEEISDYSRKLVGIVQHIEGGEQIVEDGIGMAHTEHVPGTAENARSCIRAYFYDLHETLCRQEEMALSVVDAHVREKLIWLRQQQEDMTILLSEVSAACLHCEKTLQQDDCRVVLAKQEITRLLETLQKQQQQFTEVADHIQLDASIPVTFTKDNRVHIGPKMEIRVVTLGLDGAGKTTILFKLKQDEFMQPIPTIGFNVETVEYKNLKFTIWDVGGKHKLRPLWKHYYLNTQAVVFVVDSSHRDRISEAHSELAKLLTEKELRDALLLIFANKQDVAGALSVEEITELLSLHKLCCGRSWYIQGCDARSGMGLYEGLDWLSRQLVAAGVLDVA
row,effect of a mutation on the interaction,Variant
1,with no effect,R342H

# Variants of: B3
# Details: with clk2_human CLK2, P49760
# Chain of clk2_human CLK2, P49760 (P49760 whole entry, looked up): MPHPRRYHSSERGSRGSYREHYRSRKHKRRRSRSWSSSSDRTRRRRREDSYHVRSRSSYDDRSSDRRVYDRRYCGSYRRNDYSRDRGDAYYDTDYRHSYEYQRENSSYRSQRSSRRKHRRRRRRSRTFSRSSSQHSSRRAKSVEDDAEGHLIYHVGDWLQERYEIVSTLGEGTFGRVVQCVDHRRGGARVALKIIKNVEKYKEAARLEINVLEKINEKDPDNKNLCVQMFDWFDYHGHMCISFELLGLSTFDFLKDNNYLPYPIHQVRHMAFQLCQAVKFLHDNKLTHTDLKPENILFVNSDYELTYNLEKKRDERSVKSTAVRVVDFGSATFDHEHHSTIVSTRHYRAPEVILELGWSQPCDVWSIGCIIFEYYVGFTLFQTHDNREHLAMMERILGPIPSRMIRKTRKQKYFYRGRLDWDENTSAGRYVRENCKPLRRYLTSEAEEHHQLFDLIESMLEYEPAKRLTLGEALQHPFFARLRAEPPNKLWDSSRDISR
row,effect of a mutation on the interaction,Variant
1,with no effect,R342H

# Variants of: B4
# Details: with tfp11_human TFIP11, Q9UBB9
# Chain of tfp11_human TFIP11, Q9UBB9 (Q9UBB9 whole entry): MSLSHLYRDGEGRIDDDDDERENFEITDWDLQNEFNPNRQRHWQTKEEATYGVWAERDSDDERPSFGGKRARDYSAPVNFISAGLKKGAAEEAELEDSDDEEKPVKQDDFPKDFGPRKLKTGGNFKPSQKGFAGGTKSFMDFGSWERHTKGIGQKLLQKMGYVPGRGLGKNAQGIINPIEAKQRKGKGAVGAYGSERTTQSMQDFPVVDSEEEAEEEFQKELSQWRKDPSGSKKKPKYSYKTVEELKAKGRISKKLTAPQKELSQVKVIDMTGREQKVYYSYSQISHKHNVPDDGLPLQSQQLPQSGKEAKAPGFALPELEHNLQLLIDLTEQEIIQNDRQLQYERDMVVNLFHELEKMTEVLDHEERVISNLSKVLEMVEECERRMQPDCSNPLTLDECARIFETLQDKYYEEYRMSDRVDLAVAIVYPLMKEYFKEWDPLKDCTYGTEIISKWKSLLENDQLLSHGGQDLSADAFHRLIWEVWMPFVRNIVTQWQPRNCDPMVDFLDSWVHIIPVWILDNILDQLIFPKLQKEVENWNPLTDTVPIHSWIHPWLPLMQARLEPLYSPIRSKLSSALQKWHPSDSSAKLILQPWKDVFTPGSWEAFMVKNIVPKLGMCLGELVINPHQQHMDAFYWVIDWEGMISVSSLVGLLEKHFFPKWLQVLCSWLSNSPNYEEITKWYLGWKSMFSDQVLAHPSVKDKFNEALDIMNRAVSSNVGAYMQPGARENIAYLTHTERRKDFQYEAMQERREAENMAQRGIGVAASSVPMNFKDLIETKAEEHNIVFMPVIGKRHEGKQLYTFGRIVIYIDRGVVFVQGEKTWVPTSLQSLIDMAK
row,effect of a mutation on the interaction,Variant
1,disrupting interaction strength,L75M
2,with no effect,V85I

# From IntAct's records for PubMed 31515488
